Data as given in patent publication US8992886B2, “Cyclic peptide analogues for non-invasive imaging of pancreatic beta-cells” (Board of Regents, the University of Texas System, priority 2009, dated 2015).
Ends that are not written are not given here.

What was measured:
[1] = biological target: T1, GLP-1R (Homo sapiens, UniProt P43220); conditions: DPP-IV degradation fragment; cited from earlier work
Target sequence in this assay (P43220 24-463, species assumed): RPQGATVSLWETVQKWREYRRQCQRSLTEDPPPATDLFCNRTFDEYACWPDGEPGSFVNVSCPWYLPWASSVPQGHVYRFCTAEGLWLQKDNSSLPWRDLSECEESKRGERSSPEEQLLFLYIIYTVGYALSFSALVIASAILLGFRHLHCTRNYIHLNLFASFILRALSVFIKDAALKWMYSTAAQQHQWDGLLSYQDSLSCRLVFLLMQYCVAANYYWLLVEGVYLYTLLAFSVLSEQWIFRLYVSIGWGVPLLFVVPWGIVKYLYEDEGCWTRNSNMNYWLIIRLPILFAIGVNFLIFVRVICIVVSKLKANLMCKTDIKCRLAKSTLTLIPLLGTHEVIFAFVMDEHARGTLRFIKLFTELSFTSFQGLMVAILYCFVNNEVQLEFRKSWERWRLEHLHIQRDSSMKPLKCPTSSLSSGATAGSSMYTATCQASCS

[2] = test system: freshly isolated rat islets; experiment: Displacement binding assay of ^125I-labeled peptide on isolated islets; conditions: ^125I-labeled (at Tyr^19)
From the text: (§1) This presumably resulted from the degradation of the peptide by DPP-IV since it has Ala at position 8. In order to overcome this problem, we have replaced the L-Ala with a D-Ala. Furthermore, due to high stomach uptake likely resulting from in vivo de-iodination of the ^125I-labeled peptide, a conventional metal chelator. […] The purified conjugates were labeled with either ^64Cu or ^111In in high radiochemical yields.

[3] = Tissue distribution of ^125I-labeled peptide in normal Sprague-Dawley rats; type: in vivo
From the text: as §1

[4] = biological target: T1, GLP-1R; experiment: cAMP formation by radioimmunoassay in transfected HEK293 cells; type: cell-based; design: expressed in transfected cells; host or cells: HEK293; conditions: compared with GLP-1
Description: Twelve cyclic GLP-1 analogues containing lactam bridges in various regions (from the N- to C-terminal regions) were designed and synthesized. The cyclic peptides were prepared by following standard solid-phase peptide synthesis protocol with N-Fmoc/^tBu protecting group strategy. The side chains of a lysine and a glutamic acid that would form a lactam bridge were protected with allyl groups which were selectively removed by using Pd^0 catalyst and an allyl scavenger like N,N-dimethylbarbituric acid (29). The released free amine and carboxylic acid were coupled on resin using HBTU or BOP to form a cyclic peptide. […] In addition, cAMP formation by the peptides was determined by radioimmunoassay using the transfected HEK293 cells to examine agonistic activity. […] (SEQ ID No: 5) and […] R (SEQ ID No: 6).
Target sequence in this assay (P43220 24-463): as the sequence (P43220 24-463, species assumed) above

Substance: GLP-1(9-36) amide
- receptor affinity and biological activity [1]: lost receptor affinity and biological activity nearly completely

Substance: HAEGTFTSDESSYKEGQAAKEFIAWLVKGR (lactam (positions not given here); ends not checked; also: lactam bridge, positions not given here) [SEQ ID No: 5, cyclic GLP-1 analogue with a lactam bridge]
- specific binding to isolated islets [2]: appreciable specific binding
- accumulation in kidneys and stomach [3]: high accumulation in kidneys and stomach
- pancreas uptake [3]: no significant pancreas uptake
- receptor activation (cAMP formation) [4]: comparable or improved

Substance: HAEGTFTSDVSSYLEGQAAKEFIEWLVKG R (chain 1 HAEGTFTSDVSSYLEGQAAKEFIEWLVKGR; chain 2 HAEGTFTSDVSSYLEGQAAKEFIEWLVKGR; lactam (positions not given here); ends not checked; also: lactam bridge, positions not given here) [SEQ ID No: 6, cyclic GLP-1 analogue with a lactam bridge]
- receptor activation (cAMP formation) [4]: comparable or improved
